The results in this text go back to US10808017B2, “Ubiquitin variants and uses therof as 53BP1 inhibitors” (The Governing Council of the University of Toronto, priority 2016, dated 2020).

One assay has as its target T1, TTC12 (Homo sapiens, UniProt Q9H892).
T1 construct: endogenous in cells; host or cells: HEK293 Flp-In/T-REx cells
T1 sequence (Q9H892 1-705): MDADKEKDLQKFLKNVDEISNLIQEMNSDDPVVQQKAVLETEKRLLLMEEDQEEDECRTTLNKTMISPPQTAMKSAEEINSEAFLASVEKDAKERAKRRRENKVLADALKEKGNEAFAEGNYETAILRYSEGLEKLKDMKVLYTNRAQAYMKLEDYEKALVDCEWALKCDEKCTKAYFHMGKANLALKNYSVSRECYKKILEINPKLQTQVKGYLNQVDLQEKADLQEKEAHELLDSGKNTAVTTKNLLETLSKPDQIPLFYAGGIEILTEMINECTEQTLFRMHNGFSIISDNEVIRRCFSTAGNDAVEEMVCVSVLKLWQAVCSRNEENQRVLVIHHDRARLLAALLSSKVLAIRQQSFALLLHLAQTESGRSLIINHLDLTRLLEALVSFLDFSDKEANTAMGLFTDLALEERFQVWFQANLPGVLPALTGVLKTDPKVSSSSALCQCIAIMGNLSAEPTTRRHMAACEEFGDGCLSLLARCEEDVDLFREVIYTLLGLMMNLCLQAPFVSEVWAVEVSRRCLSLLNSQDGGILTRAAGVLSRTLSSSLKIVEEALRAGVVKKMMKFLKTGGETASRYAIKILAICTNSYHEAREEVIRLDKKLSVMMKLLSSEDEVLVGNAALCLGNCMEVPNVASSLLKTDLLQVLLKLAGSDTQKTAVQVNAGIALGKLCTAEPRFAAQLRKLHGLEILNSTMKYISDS
Description: Flag IP-MS of i53/i53-DM baits: prey TTC12. The note with it: 293T Flp-In/T-Rex extracts, LC-MS/MS, one column per replicate IP. Format: binding. The method, then:
(§1) Following immunoprecipitation of Flag-tagged i53 and i-53-DM from HEK293 Flp-In/T-REx cells, peptides were identified using LC-MS/MS. Proteins were digested in solution with trypsin (Sigma, T7575-1KT) and dried to completeness. For LC-MS/MS analysis, peptides were reconstituted in 5% formic acid and loaded onto a 12-15 cm fused silica column with pulled tip packed in-house with 3.5 μm Zorbax C18 (Agilent Technologies, Calif., USA).
(§2) i53 and i53-DM precipitates were analyzed using an LTQ (Thermo Scientific) coupled to an Agilent 1100 Series HPLC (Agilent Technologies). Peptides were eluted from the column using a 90 min period cycle with a linear gradient from 0% to 40% ACN in 0.1% formic acid. Tandem MS spectra were acquired in a data-dependent mode for the top 5 (LTQ) most abundant ions using collision-induced dissociation. Acquired spectra were searched against the human Refseq_V53 database using Mascot (Matrix Science).
(§3) 293T Flp-In/T-Rex cell lines were generated that expressed Flag-tagged i53 or i53-DM under the control of a tetracycline-inducible promoter as previously described. Nine IP-MS experiments were analyzed (3 biological replicate IPs each for control i53- and i53-DM expressing cell lines). The interacting proteins were identified by MASCOT to identify high-confidence interactors for i53. […]

A further assay deals with T2, RERGL (Homo sapiens, UniProt Q9H628).
T2 construct: endogenous in cells; host or cells: HEK293 Flp-In/T-REx cells
T2 sequence (Q9H628 1-204): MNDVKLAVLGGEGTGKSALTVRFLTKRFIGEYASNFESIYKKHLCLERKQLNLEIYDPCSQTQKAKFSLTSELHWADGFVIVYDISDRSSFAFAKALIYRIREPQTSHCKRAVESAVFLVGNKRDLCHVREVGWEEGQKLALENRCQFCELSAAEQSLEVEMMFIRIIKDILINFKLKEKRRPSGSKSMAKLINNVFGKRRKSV
Nature of the assay: Flag IP-MS of i53/i53-DM baits: prey RERGL. The format is binding. The note with it: 293T Flp-In/T-Rex extracts, LC-MS/MS, one column per replicate IP. How it is done: as §1, §2, §3

The target in assay [1] is T3, 53BP1 recruitment to DSB sites in U2OS cells (Homo sapiens, UniProt Q12888).
T3 construct: endogenous in cells; host or cells: U2OS
T3 sequence (Q12888 whole entry): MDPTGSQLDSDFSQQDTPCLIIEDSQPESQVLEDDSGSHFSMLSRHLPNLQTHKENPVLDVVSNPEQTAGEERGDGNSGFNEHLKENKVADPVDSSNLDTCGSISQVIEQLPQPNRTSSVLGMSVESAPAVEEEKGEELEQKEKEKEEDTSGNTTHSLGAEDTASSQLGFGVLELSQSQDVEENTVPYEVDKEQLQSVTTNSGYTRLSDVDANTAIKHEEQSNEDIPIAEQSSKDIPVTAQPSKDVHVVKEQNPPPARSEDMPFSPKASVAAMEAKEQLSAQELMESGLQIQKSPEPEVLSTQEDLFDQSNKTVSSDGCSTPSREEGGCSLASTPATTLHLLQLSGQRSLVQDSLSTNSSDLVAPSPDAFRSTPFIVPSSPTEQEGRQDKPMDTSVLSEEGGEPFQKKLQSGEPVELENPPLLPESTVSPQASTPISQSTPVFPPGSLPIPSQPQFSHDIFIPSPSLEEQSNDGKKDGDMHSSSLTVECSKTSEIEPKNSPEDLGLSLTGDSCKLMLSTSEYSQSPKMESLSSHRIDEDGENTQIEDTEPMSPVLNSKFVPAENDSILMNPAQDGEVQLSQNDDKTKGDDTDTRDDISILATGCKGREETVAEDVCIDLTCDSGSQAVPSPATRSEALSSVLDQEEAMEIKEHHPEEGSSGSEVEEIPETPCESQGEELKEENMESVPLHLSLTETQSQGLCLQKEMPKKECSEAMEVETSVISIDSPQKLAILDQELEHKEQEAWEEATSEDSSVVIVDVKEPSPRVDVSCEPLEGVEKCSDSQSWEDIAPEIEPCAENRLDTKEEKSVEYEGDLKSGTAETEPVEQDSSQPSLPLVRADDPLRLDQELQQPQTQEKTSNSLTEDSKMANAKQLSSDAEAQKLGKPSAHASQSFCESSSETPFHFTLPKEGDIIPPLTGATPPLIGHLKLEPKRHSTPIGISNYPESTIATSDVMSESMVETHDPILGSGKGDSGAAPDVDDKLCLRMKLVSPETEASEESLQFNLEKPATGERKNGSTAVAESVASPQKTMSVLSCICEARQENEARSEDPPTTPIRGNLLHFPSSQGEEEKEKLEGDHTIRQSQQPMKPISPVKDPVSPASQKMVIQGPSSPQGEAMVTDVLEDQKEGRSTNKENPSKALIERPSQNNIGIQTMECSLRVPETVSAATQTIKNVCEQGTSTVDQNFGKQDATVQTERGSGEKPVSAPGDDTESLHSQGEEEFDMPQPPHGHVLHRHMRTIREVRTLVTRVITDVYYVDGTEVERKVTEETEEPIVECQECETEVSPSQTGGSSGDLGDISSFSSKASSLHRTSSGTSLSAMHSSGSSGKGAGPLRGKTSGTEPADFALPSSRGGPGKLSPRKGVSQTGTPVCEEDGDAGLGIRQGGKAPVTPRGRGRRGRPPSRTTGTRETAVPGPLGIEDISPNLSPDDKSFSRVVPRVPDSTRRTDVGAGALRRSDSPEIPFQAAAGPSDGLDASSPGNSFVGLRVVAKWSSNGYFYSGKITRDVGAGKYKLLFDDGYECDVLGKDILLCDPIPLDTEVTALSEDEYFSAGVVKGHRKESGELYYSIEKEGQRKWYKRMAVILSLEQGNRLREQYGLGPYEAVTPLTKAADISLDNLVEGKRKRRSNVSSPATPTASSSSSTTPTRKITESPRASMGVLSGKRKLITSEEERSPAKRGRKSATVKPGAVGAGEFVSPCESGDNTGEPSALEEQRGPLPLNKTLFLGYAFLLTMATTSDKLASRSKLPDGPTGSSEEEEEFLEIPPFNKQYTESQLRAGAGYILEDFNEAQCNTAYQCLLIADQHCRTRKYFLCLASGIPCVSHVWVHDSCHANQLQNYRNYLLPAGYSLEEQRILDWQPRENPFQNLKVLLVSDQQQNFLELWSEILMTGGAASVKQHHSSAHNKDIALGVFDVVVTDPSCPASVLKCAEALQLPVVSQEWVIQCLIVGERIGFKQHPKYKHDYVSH
Description: Ionizing radiation focus formation, 53BP1 (immunofluorescence). The format is cell-based. The note with it: transfected U2OS cells, 10 Gy X-rays, 1 h post-irradiation. How it is done: FIG. 3. The i53 protein inhibits 53BP1. FIG. 3A-B, U2OS cells were transfected with vectors expressing i53, its 53BP1-binding deficient mutant (DM) or an empty vector (EV) control. Cells were then X-irradiated with a 10 Gy dose and processed for immunofluorescence with the indicated antibodies 1 h post-irradiation (IR). DAPI staining (not shown) was used to delineate the outline (dashed lines) of the cell nuclei. The region in the magnified inset is indicated with a square. Quantitation of the experiment is shown in panel (a) and data is indicated as the mean±s.e.m (N=3), whereas in (b) representative micrographs are shown. Arrowheads indicate Flag-positive cells. FIG. 3C, Parental or 53BP1ΔU2OS cells transfected with vectors expressing i53, the DM mutant or an empty vector (EV) control were irradiated (10 Gy) 1 h before being processed for immunofluorescence. Cell cycle stage was assessed by Cyclin A staining. The data is presented as the mean±s.e.m.; N=3. FIG. 3D, Immunoprecipitation (IP) of Flag-tagged proteins from extracts prepared from 293T cells transfected with vectors expressing Flag-i53 or the i53-DM mutant. Proteins were separated by SDS-PAGE and immunoblotted (IB) for Flag and 53BP1. […]

With “i53-DM: 53BP1-binding deficient mutant of i53 (P69L, L70V)”, the “Total peptides, TTC12” value in the assay with TTC12 worked out at 3. Also, in the assay with RERGL, the “Total peptides, RERGL” value came to 2.
Consider “i53: UbvG08 with C-terminal di-glycine removed and I44A mutation; genetically encoded inhibitor of 53BP1”, for which the “53BP1 recruitment to DSB sites (ionizing radiation focus formation)” value in assay [1] is given as “strongly suppressed 53BP1 recruitment to DSB sites”.
